Where a chain is given by its changes, count along the chain named. Names may count otherwise. “And” between values parts separate entries of the source, which are not always exact repeats. Equal entries are not always repeated.
B1: human IL-22RA (recombinant, form not stated) (receptor)
chain: HAPEDPSDLLQHVKFQSSNFENILTWDSGPEGTPDTVYSIEYKTYGERDWVAKKGCQRITRKSCNLTVETGNLTELYYARVTAVSAGGRSATKMTDRFSSLQHTTLKPPDVTCISKVRSIQMIVHPTPTPIRAGDGHRLTLEDIFHDLFYHLELQVNRTYQMHLGGKQREYEFFGLTPDTEFLGTIMICVPTWAKESAPYMCRVKTLPDRTWT
notes: a soluble ECD is likely; also called hIL-22RA; human interleukin 22 receptor alpha
B2: murine IL-22RA (recombinant, form not stated) (receptor, UniProt Q80XZ4 16-230, looked up)
chain: HTTVDTSGLLQHVKFQSSNFENILTWDGGPASTSDTVYSVEYKKYGERKWLAKAGCQRITQKFCNLTMETRNHTEFYYAKVTAVSAGGPPVTKMTDRFSSLQHTTIKPPDVTCIPKVRSIQMLVHPTLTPVLSEDGHQLTLEEIFHDLFYRLELHVNHTYQMHLEGKQREYEFLGLTPDTEFLGSITILTPILSKESAPYVCRVKTLPDRTWAYS
notes: also called mIL-22RA; mouse IL-22 receptor alpha
B3: mouse 280.46.3.4 (mouse anti-human IL-22RA monoclonal antibody from hybridoma 280.46.3.4, ATCC PTA-6284) (antibody, V domains shown)
VH: EVQLQQSGPELVRPGTSVKISCKASGYSLTADYMNWVKQSPEESLEWIGEINPSTGTTTYNQKFEAKATLTVDQSSNTAYLQLTSLTSEDSAVYYCARFDAYFDYWGQGTTVTVSS
VL: DIVMTQSPSSLAVSVGEKVTMSCKSSQSLLYSSNQKNCLAWYQQKPGQSPKLLIYWASSRESGVPDRFTGSGSGTDFTLTISSVKTEDLAVYYCQQYFSYPFTFGSGTKLEIKR
B4: humanized 280.46.3.4 antibody comprising 280.VH3-66-1 paired with 280.VK4-1-S, human IgG1/kappa (antibody, V domains shown)
VH: EVQLVESGGGLVQPGGSLRLSCAASGYSLTADYMNWVRQAPGKGLEWIGEINPSTGTTTYNQKFEARATLTVDQSKNTAYLQMNSLRAEDTAVYYCARFDAYFDYWGQGTLVTVSS
VL: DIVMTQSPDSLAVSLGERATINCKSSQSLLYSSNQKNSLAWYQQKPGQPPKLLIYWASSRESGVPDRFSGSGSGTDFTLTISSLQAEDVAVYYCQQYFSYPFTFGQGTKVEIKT
B5: humanized 280.46.3.4 antibody comprising 280.VH3-66-4 paired with 280.VK4-1-T, human IgG1/kappa (antibody, V domains shown)
VH: B4 VH with E65K, A66G, T71S
VL: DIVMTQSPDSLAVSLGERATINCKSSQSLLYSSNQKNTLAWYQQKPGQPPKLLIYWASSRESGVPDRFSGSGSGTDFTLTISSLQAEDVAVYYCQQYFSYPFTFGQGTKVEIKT
B6: humanized 280.46.3.4 antibody comprising 280.VH3-66-18 paired with 280.VK4-1-T, human IgG1/kappa (antibody, V domains shown)
VH: B4 VH with D32E, E65K, A66G, T71S
VL: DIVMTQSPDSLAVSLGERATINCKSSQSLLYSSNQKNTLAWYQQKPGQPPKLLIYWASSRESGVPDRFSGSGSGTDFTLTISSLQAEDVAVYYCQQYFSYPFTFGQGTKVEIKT
B7: Fab of D96E mutant: 280.VH3-66-4 with Asp to Glu at position 96, paired with 280.VK4-1-T (Fab, name in Kabat numbering, V domains shown)
VH: B4 VH with E65K, A66G, T71S, D100E
VL: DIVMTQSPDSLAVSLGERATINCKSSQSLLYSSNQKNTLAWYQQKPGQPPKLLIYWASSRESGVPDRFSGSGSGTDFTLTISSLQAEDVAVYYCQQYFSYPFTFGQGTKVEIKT
notes: NiNTA-purified Fab, which implies a His tag that is not described
B8: Fab of D32E mutant: 280.VH3-66-18 paired with 280.VK4-1-T (Fab, V domains shown)
VH: B4 VH with D32E, E65K, A66G, T71S
VL: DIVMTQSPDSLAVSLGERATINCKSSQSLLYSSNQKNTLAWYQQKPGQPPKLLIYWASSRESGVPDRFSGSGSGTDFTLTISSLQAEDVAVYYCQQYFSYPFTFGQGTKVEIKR
notes: NiNTA-purified Fab, which implies a His tag that is not described; also called version 18

Legend:
[1] = target: T1, 280.346.TSY (humanized anti-human IL-22RA antibody comprising 280.VH3-66-46 paired with 280.VK4-1-TSY, human …); test: competitive ELISA: soluble competitor against coated human IL-22RA-ECD for biotinylated 280-346-TSY; soluble human IL-22RA as competitor
T1 construct: Produced in CHO cells; also called 280.VH3-66-46/VK4-1-TSY; 280.VH3-66.46 paired with 280.IGKV4-1-TSY
T1 sequence (VL, as listed by the source): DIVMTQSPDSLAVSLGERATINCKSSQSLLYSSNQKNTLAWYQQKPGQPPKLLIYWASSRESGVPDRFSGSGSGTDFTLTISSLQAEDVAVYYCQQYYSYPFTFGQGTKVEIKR
Method: (§1) FIG. 23 reports the results of a competitive ELISA done to measure the specificity of 280.346.TSY to human IL-22RA. Microtiter plates were coated with human IL-22RA-ECD (i.e. IL-22RA-Extra Cellular Domain). Biotinylated 280-346-TSY antibody was added to the plate in the presence of competitors: human interleukin 22 receptor alpha (hIL-22RA), human IL-22 binding protein (hIL-22BP), murine IL-22 receptor alpha (mIL-22RA), human IL-10 receptor alpha (hIL-10R) and human IL-20 receptor alpha (hIL-20R).
(§2) Specificity and binding affinity of 280.346.TSY was determined using a competitive ELISA. Microtiter plates were coated with human IL-22RA-ECD (i.e. IL-22RA-Extra Cellular Domain). Biotinylated 280-346-TSY antibody was added to the plate in the presence of competitors: human interleukin 22 receptor alpha (hIL-22RA), human IL-22 binding protein (hIL-22BP), mouse IL-22 receptor alpha (mIL-22RA), human IL-10 receptor alpha (hIL-10R) and human IL-20 receptor alpha (hIL-20R).

[2] = target: T1, 280.346.TSY (humanized anti-human …); test: competitive ELISA: soluble competitor against coated human IL-22RA-ECD for biotinylated 280-346-TSY; soluble murine IL-22RA as competitor
Method: as §1, §2

[3] = target: T2, human IL-22RA on cells (HepG2 hepatoma cells, normal human keratinocytes, BaF3 cells transfected with human … (human, UniProt Q8N6P7 16-574)); test: cell-based or functional assay
T2 sequence: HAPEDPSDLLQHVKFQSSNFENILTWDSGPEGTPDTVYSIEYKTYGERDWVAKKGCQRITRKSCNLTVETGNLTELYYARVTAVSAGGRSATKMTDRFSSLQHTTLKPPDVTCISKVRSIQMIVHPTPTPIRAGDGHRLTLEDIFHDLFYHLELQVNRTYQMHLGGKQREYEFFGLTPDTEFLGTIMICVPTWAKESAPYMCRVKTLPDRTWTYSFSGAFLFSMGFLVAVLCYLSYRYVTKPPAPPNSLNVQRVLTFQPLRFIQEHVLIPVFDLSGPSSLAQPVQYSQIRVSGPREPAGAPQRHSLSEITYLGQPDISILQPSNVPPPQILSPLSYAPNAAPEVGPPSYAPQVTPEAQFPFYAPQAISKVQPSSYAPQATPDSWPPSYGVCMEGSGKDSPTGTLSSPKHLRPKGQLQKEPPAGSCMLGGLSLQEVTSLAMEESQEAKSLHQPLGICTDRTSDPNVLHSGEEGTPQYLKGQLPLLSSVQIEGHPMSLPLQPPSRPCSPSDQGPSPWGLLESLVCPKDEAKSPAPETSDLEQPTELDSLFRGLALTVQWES

[4] = target: T3, murine IL-22RA on cells (HEPA1-6 hepatoma cells, BaF3 cells transfected with murine IL-22RA and IL-10RB) (murine, UniProt Q80XZ4 16-581); test: cell-based or functional assay
T3 sequence (looked up): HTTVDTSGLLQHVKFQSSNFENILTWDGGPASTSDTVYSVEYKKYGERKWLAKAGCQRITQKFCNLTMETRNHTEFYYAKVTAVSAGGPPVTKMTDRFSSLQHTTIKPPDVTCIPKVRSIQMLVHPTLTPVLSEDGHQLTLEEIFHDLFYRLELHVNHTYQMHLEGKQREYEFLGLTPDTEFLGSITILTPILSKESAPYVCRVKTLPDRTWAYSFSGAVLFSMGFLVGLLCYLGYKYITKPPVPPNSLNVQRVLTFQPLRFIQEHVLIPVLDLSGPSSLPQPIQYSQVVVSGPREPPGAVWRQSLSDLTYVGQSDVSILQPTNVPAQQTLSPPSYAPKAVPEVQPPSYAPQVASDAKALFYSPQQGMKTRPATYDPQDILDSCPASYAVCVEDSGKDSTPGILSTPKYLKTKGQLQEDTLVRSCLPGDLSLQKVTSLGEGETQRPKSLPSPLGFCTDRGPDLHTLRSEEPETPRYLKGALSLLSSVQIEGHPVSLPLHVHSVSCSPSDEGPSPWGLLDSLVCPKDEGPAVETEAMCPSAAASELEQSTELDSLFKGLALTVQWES

[5] = target: B1; test: Biacore, NiNTA-purified Fab

B1
IC50 [1]: 0.0182 nM

B2
IC50 [2]: 0.149 nM

B3
IC50, STAT3 phosphorylation assay in human HepG2 hepatoma cells stimulated with recombinant human IL-22 [3]: 0.333 nM and 0.37 nM and 0.266 nM
IC50, STAT3 phosphorylation assay in normal human keratinocytes stimulated with recombinant human IL-22 [3]: 0.542 nM
IC50, proliferation assay in BaF3 cells transfected with human IL-22RA and IL-10RB, cultured with recombinant human IL-22 [3]: 0.545 nM and 0.587 nM
IC50, proliferation assay in BaF3 cells transfected with murine IL-22RA and IL-10RB, cultured with recombinant murine IL-22 [4]: 0.849 nM and 1.47 nM

B4
IC50, STAT3 phosphorylation assay in human HepG2 hepatoma cells stimulated with recombinant human IL-22 [3]: 0.258 nM
IC50, proliferation assay in BaF3 cells transfected with human IL-22RA and IL-10RB, cultured with recombinant human IL-22 [3]: 0.34 nM
fold potency against the mouse parental antibody 280.46.3.4, STAT3 phosphorylation assay in HepG2 cells [3]: 1.4 fold
fold potency against the mouse parental antibody 280.46.3.4, proliferation of human IL-22 receptor transfected BaF3 cells [3]: 1.7 fold
IC50, proliferation assay in BaF3 cells transfected with murine IL-22RA and IL-10RB, cultured with recombinant murine IL-22 [4]: 0.693 nM
fold potency against the mouse parental antibody 280.46.3.4, proliferation of murine IL-22 receptor transfected BaF3 cells [4]: 2.1 fold

B5
IC50, STAT3 phosphorylation assay in human HepG2 hepatoma cells stimulated with recombinant human IL-22 [3]: 0.183 nM
IC50, proliferation of human IL-22 receptor (IL-22RA and IL-10RB) transfected BaF3 cells [3]: 0.334 nM
fold potency against the mouse parental antibody 280.46.3.4, STAT3 phosphorylation assay in HepG2 cells [3]: 1.8 fold
fold potency against the mouse parental antibody 280.46.3.4, proliferation of human IL-22 receptor transfected BaF3 cells [3]: 1.75 fold
IC50, proliferation of murine IL-22 receptor (IL-22RA and IL-10RB) transfected BaF3 cells [4]: 0.687 nM
fold potency against the mouse parental antibody 280.46.3.4, proliferation of murine IL-22 receptor transfected BaF3 cells [4]: 2.1 fold

B6
IC50, STAT3 phosphorylation assay in human HepG2 hepatoma cells [3]: 0.133 nM
fold potency against the mouse parental antibody 280.46.3.4, STAT3 phosphorylation assay in HepG2 cells [3]: ~3 fold

B7
fold reduction of affinity against parental unmutated D32 (280.VH3-66-4) [5]: ~500 fold

B8
fold decrease of the off rate against parental unmutated D32 (280.VH3-66-4) [5]: ~5 fold
fold increase of the on rate against parental unmutated D32 (280.VH3-66-4) [5]: ~2 fold

From patent publication US20120230990A1 (MERCK SERONO, published 2012)
